Data published in publication PMC2171544.

Target: recombinant Xenopus TACC3/maskin (TACC3-WT), full length, His6-tagged (Xenopus laevis) (UniProt Q9PTG8)
Assay: sucrose density gradient centrifugation + SEC

Chain of recombinant Xenopus TACC3/maskin (TACC3-WT), full length, His6-tagged (Xenopus laevis) (Q9PTG8 whole entry): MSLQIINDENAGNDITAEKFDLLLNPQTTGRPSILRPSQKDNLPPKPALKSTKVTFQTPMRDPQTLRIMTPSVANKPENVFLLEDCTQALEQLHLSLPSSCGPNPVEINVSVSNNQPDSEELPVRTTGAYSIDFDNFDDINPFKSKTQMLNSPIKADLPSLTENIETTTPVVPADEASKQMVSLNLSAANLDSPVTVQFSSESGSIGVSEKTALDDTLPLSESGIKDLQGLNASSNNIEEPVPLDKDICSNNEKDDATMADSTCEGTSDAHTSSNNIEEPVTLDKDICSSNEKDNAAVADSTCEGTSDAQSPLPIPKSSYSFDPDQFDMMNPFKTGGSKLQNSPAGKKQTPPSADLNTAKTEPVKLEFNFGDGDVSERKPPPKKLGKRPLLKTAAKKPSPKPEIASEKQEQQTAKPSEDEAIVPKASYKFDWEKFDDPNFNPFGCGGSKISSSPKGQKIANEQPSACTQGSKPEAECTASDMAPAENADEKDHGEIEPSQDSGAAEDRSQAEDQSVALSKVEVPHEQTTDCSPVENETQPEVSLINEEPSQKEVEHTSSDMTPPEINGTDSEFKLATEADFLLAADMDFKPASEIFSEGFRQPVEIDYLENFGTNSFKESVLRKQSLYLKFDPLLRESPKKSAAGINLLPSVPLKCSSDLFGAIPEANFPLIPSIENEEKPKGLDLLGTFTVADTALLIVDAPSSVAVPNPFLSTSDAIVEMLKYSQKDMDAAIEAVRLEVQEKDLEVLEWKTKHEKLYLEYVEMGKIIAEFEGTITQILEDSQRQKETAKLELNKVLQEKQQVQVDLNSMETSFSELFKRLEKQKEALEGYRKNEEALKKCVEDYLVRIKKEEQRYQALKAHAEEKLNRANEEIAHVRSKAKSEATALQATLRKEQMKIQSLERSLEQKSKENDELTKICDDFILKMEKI

Substance: recombinant XMAP215, Q9PT63 1-2065
- stoichiometry N: 1
